From the supplement of paper PMC9112550, “Optimization of the antimicrobial peptide Bac7 by deep mutational scanning” (BMC Biology, 2022)

System: Escherichia coli TOP10
Assay: shrunken log2 fold change of peptide-encoding DNA abundance (4.5 h post-induction vs induction); higher = less antimicrobial activity (less host growth inhibition)
Conditions: time post-induction: 4.5 h; library: site-saturation at positions 5, 18, 19, 20
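Note: peptides expressed intracellularly from a pBAD plasmid library in pooled LB shake-flask culture, induced with 0.3% L-arabinose, DNA abundance read by NGS, three biological replicates, DESeq2 with apeglm shrinkage.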

| Sequence | shrunken log2 fold change |
| --- | --- |
| RRIRHRPPRLPRPRPRPDWRPRP | 0.147 |
| RRIRTRPPRLPRPRPRPYEAPRP | -0.966 |
| RRIRHRPPRLPRPRPRPMIFPRP | -0.251 |
| RRIRDRPPRLPRPRPRPDPQPRP | 0.209 |
| RRIRYRPPRLPRPRPRPCYEPRP | -0.246 |
| RRIRARPPRLPRPRPRPQLVPRP | 0.308 |
| RRIRHRPPRLPRPRPRPMIMPRP | -0.266 |
| RRIRDRPPRLPRPRPRPQPAPRP | 0.559 |
| RRIRIRPPRLPRPRPRPECQPRP | -0.00158 |
| RRIRYRPPRLPRPRPRPDFDPRP | -0.0161 |
| RRIRMRPPRLPRPRPRPLYIPRP | -1.01 |
| RRIRTRPPRLPRPRPRPTRDPRP | 0.136 |
| RRIRCRPPRLPRPRPRPKTAPRP | 0.39 |
| RRIRRRPPRLPRPRPRPRVYPRP | 0.335 |
| RRIRDRPPRLPRPRPRPYFNPRP | -0.849 |
| RRIRIRPPRLPRPRPRPNMTPRP | -0.804 |
| RRIRYRPPRLPRPRPRPKRKPRP | -0.128 |
| RRIRPRPPRLPRPRPRPHARPRP | 0.111 |
| RRIRCRPPRLPRPRPRPTRYPRP | -0.0935 |
| RRIRWRPPRLPRPRPRPNAKPRP | 0.188 |
| RRIRCRPPRLPRPRPRPCPVPRP | -0.28 |
| RRIRFRPPRLPRPRPRPNLRPRP | -0.0383 |
| RRIRHRPPRLPRPRPRPWYDPRP | 0.0351 |
| RRIRIRPPRLPRPRPRPETHPRP | -0.413 |
| RRIRMRPPRLPRPRPRPFGYPRP | 0.067 |

| Sequence | shrunken log2 fold change |
| --- | --- |
| RRIRARPPRLPRPRPRPFGHPRP | 0.132 |
| RRIRERPPRLPRPRPRPYTHPRP | -0.623 |
| RRIRVRPPRLPRPRPRPMVPPRP | -0.189 |
| RRIRIRPPRLPRPRPRPTHFPRP | -0.0417 |
| RRIRTRPPRLPRPRPRPEHMPRP | -0.0375 |
| RRIRVRPPRLPRPRPRPTWRPRP | 0.686 |
| RRIRARPPRLPRPRPRPQPIPRP | 0.16 |
| RRIRCRPPRLPRPRPRPVCVPRP | -0.0801 |
| RRIRWRPPRLPRPRPRPFLAPRP | -0.0712 |
| RRIRLRPPRLPRPRPRPTACPRP | -0.0054 |
| RRIRHRPPRLPRPRPRPQRRPRP | 0.0777 |
| RRIRYRPPRLPRPRPRPHHGPRP | 0.0431 |
| RRIRDRPPRLPRPRPRPVWHPRP | 0.0277 |
| RRIRYRPPRLPRPRPRPQIFPRP | 0.0295 |
| RRIRERPPRLPRPRPRPHVSPRP | -0.0346 |
| RRIRDRPPRLPRPRPRPPPWPRP | 0.788 |
| RRIRYRPPRLPRPRPRPKKQPRP | -0.00353 |
| RRIRKRPPRLPRPRPRPSCIPRP | -0.0677 |
| RRIRCRPPRLPRPRPRPMFAPRP | 0.186 |
| RRIRKRPPRLPRPRPRPNDVPRP | 0.117 |
| RRIRIRPPRLPRPRPRPCFLPRP | -0.544 |
| RRIRPRPPRLPRPRPRPYETPRP | -0.106 |
| RRIRTRPPRLPRPRPRPVQWPRP | 0.116 |
| RRIRTRPPRLPRPRPRPSPDPRP | -0.331 |
| RRIRQRPPRLPRPRPRPLQGPRP | 0.0512 |

| Sequence | shrunken log2 fold change |
| --- | --- |
| RRIRIRPPRLPRPRPRPKISPRP | -0.3 |
| RRIRVRPPRLPRPRPRPHPRPRP | 0.555 |
| RRIRPRPPRLPRPRPRPFSMPRP | -0.161 |
| RRIRPRPPRLPRPRPRPYNYPRP | -0.446 |
| RRIRPRPPRLPRPRPRPTYQPRP | -0.0514 |
| RRIRYRPPRLPRPRPRPLCKPRP | -0.588 |
| RRIRNRPPRLPRPRPRPYRDPRP | -0.0123 |
| RRIRTRPPRLPRPRPRPCFTPRP | -0.358 |
| RRIRIRPPRLPRPRPRPTNHPRP | -0.587 |
| RRIRFRPPRLPRPRPRPFYCPRP | -0.781 |
| RRIRPRPPRLPRPRPRPKELPRP | 0.0936 |
| RRIRHRPPRLPRPRPRPNGHPRP | -0.0552 |
| RRIRARPPRLPRPRPRPLPAPRP | 1.02 |
| RRIRFRPPRLPRPRPRPGGTPRP | -0.0188 |
| RRIRQRPPRLPRPRPRPSHVPRP | -0.367 |
| RRIRARPPRLPRPRPRPLRWPRP | 0.809 |
| RRIRPRPPRLPRPRPRPNFIPRP | -0.215 |
| RRIRVRPPRLPRPRPRPLMDPRP | -0.0628 |
| RRIRNRPPRLPRPRPRPVMDPRP | 0.0106 |
| RRIRFRPPRLPRPRPRPRGKPRP | 0.734 |
| RRIRGRPPRLPRPRPRPDFAPRP | 0.724 |
| RRIRSRPPRLPRPRPRPESLPRP | 0.0154 |
| RRIRNRPPRLPRPRPRPAVNPRP | -0.169 |
| RRIRARPPRLPRPRPRPVFIPRP | -0.201 |
| RRIRWRPPRLPRPRPRPQCGPRP | -0.0434 |

| Sequence | shrunken log2 fold change |
| --- | --- |
| RRIRERPPRLPRPRPRPCCNPRP | -0.0562 |
| RRIRIRPPRLPRPRPRPMCAPRP | -0.127 |
| RRIRQRPPRLPRPRPRPGCAPRP | 0.507 |
| RRIRFRPPRLPRPRPRPAYCPRP | -0.219 |
| RRIRYRPPRLPRPRPRPFLNPRP | -0.369 |
| RRIRERPPRLPRPRPRPMDAPRP | -0.0623 |
| RRIRLRPPRLPRPRPRPCVQPRP | -0.0514 |
| RRIRNRPPRLPRPRPRPVPDPRP | -0.0278 |
| RRIRCRPPRLPRPRPRPVVYPRP | -0.0321 |
| RRIRMRPPRLPRPRPRPPIQPRP | 0.693 |
| RRIRGRPPRLPRPRPRPVILPRP | -0.33 |
| RRIRQRPPRLPRPRPRPENSPRP | -0.0723 |
| RRIRHRPPRLPRPRPRPYRAPRP | -0.258 |
| RRIRNRPPRLPRPRPRPMMWPRP | -0.0283 |
| RRIRDRPPRLPRPRPRPNRQPRP | -0.0252 |
| RRIRYRPPRLPRPRPRPVHWPRP | 0.0233 |
| RRIRWRPPRLPRPRPRPMFKPRP | 0.0191 |
| RRIRIRPPRLPRPRPRPTQHPRP | 0.0549 |
| RRIRWRPPRLPRPRPRPERGPRP | 0.683 |
| RRIRMRPPRLPRPRPRPWSMPRP | -0.156 |
| RRIRLRPPRLPRPRPRPVQYPRP | -0.0382 |
| RRIRERPPRLPRPRPRPSQTPRP | -0.067 |
| RRIRDRPPRLPRPRPRPMHYPRP | 0.0552 |
| RRIRYRPPRLPRPRPRPGLGPRP | -0.0488 |
| RRIRVRPPRLPRPRPRPEVEPRP | -0.0626 |

| Sequence | shrunken log2 fold change |
| --- | --- |
| RRIRSRPPRLPRPRPRPECTPRP | 0.169 |
| RRIRDRPPRLPRPRPRPHQAPRP | -0.0175 |
| RRIRMRPPRLPRPRPRPVPWPRP | 0.581 |
| RRIRVRPPRLPRPRPRPFRIPRP | -0.26 |
| RRIRYRPPRLPRPRPRPHWYPRP | -1.02 |
| RRIRTRPPRLPRPRPRPGRCPRP | 0.178 |
| RRIRMRPPRLPRPRPRPFFFPRP | 0.365 |
| RRIRSRPPRLPRPRPRPLFAPRP | 0.0687 |
| RRIRNRPPRLPRPRPRPGYMPRP | -0.281 |
| RRIRLRPPRLPRPRPRPIHVPRP | -0.0124 |
| RRIRARPPRLPRPRPRPSHSPRP | -0.101 |
| RRIRLRPPRLPRPRPRPSDCPRP | -0.336 |
| RRIRARPPRLPRPRPRPEASPRP | 1.19 |
| RRIRMRPPRLPRPRPRPINCPRP | -0.0244 |
| RRIRCRPPRLPRPRPRPINIPRP | -0.702 |
| RRIRIRPPRLPRPRPRPFECPRP | -0.0837 |
| RRIRYRPPRLPRPRPRPDSQPRP | -0.429 |
| RRIRIRPPRLPRPRPRPKGPPRP | -0.14 |
| RRIRHRPPRLPRPRPRPNATPRP | 0.255 |
| RRIRLRPPRLPRPRPRPPWHPRP | 0.193 |
| RRIRPRPPRLPRPRPRPLMAPRP | 0.213 |
| RRIRQRPPRLPRPRPRPKAIPRP | 0.0432 |
| RRIRIRPPRLPRPRPRPQLVPRP | -0.163 |
| RRIRIRPPRLPRPRPRPTEEPRP | 0.146 |
| RRIRVRPPRLPRPRPRPLIVPRP | -0.335 |
